Results reported in patent EP4680648A1 (dated 2026).

T1: dog HER3 expressed on CHO-S cells (CHO-dHER3 cells) (dog, UniProt P21860 20-1342 (human entry))
T1 chain: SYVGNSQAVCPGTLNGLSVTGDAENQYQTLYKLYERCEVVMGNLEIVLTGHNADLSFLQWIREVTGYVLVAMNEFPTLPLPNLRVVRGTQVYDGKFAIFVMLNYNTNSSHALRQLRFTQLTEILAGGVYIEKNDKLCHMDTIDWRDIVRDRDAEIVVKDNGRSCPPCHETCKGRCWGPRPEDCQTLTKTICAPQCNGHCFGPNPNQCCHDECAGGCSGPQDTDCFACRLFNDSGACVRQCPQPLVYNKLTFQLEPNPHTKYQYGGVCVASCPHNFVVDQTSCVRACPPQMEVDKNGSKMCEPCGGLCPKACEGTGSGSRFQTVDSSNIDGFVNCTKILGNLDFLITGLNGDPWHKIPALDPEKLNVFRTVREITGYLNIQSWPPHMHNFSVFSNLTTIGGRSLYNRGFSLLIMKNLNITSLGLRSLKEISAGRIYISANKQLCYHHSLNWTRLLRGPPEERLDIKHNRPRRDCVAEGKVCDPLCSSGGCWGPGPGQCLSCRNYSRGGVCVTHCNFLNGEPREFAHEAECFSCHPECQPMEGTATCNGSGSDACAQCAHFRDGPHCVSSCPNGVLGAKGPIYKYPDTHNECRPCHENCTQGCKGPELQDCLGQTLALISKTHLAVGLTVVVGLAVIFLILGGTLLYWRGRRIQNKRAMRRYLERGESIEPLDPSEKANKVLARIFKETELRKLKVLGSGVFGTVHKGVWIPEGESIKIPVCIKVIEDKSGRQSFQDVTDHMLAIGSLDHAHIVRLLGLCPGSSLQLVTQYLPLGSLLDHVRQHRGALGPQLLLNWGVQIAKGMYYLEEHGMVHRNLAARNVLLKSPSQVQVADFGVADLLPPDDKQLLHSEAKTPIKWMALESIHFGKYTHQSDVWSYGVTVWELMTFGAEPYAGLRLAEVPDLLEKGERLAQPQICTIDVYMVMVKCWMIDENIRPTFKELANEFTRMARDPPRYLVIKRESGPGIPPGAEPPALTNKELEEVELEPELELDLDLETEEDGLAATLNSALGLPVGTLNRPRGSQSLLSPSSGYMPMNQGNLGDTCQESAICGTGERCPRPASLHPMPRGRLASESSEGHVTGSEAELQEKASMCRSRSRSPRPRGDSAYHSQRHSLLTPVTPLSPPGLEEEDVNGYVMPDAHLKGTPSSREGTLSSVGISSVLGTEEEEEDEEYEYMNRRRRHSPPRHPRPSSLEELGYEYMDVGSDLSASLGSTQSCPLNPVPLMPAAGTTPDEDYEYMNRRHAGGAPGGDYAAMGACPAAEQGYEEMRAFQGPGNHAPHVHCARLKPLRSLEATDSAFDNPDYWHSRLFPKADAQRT

T2: monkey (Macaca fascicularis) HER3 expressed on CHO-S cells (CHO-fasHER3 cells) (monkey (Macaca fascicularis), UniProt P21860 20-643 (human entry))
T2 construct: also called monkey HER3
T2 chain: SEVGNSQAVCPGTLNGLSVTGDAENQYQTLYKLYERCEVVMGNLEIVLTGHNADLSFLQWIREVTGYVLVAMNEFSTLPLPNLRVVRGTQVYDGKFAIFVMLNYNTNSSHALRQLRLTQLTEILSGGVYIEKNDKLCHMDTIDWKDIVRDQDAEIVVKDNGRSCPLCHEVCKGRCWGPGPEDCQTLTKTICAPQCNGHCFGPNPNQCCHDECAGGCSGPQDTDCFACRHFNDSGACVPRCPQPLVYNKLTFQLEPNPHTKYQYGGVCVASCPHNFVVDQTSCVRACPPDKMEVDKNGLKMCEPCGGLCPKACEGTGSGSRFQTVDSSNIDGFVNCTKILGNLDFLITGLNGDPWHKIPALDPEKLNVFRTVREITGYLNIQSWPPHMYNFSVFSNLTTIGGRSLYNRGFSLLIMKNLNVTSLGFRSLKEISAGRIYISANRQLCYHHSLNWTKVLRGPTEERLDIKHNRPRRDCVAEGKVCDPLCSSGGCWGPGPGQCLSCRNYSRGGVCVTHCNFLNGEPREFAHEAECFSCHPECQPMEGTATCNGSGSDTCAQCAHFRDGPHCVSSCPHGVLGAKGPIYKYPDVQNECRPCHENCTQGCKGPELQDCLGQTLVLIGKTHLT


Experiments:
[1] = molecular target: T1, dog HER3 expressed on CHO-S cells …; experiment: flow cytometry on CHO-dHER3 cells
[2] = molecular target: human HER3 expressed on CHO-S cells (CHO-hHER3 cells) (human, UniProt P21860 20-643); experiment: flow cytometry on CHO-hHER3 cells
[3] = molecular target: mouse HER3 expressed on CHO-S cells (CHO-mHER3 cells) (mouse, UniProt Q61526 20-641); experiment: flow cytometry on CHO-mHER3 cells
[4] = molecular target: T2, monkey (Macaca fascicularis) HER3 …; experiment: flow cytometry on CHO-fasHER3 cells
[5] = molecular target: T3, His-tagged human HER3 protein (hHER3, ACRO Biosystems Inc., Cat#: ER3-H5223) (human, UniProt P21860 20-643); experiment: SPR (Biacore 8K), antibody captured on Protein A chip, His-tagged hHER3 as analyte
T3 construct: Bought protein; also called hHER3-His; not shown: His tag

[6] = molecular target: T3, His-tagged human HER3 protein (hHER3, …); experiment: SPR (Biacore 8K), antibody captured on Protein A chip, His-tagged HER3 as analyte

Sequence of mouse HER3 expressed on CHO-S cells (CHO-mHER3 cells) (Q61526 20-641): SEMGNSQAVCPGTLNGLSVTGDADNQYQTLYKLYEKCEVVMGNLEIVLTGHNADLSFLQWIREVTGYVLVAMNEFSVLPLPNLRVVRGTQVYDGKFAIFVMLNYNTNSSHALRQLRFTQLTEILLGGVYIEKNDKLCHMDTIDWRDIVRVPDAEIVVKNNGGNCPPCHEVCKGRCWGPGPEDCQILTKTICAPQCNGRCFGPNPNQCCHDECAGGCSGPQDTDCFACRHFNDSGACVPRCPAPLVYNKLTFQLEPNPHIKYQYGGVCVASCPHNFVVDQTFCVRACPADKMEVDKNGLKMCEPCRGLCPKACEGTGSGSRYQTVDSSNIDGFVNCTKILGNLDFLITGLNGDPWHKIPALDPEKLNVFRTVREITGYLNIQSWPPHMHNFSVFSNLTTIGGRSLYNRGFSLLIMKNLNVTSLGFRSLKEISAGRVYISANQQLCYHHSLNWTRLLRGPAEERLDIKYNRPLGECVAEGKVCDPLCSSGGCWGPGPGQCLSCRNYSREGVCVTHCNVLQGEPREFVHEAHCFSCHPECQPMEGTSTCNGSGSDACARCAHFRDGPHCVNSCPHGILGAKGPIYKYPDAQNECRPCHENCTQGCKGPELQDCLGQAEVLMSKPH

Binder	binding result [1]	binding result [2]	binding result [3]	binding result [4]	binding result [5]	binding result [6]
anti-HER3 antibody 3G6 (antibody, human IgG1, V domains shown, common light chain) VH: QVQLVQSGPVLVKPTETLTLTCTVSGFSLSNIRMGVSWIRQPPGKALEWLAHIFSNDDKSYSTSLKSRLTISKDTSKSQVVLTMTNVDPVDTATYYCTRMRYSGGPFDYWGQGTLVTVSS VL: not shown	binds	binds	binds	binds	binds	
anti-HER3 antibody 1B2 (antibody, V domains shown, common light chain) VH: QVQLVQSGPVLVKPTETLTLTCTVSTFSLSNARMGVSWIRQPPGKALEWLAHIFSNDDKSYSPSLKSRLTISKDTSKTQVVLTMTNMDPVDTATYYCSRMRYSGGPFDYWGQGSLVTVSS VL: not shown	binds	binds	binds	binds	binds	
anti-HER3 antibody 3E1 (antibody, human IgG1, V domains shown, common light chain) VH: EVQLVQSGPVLAKPTETLTLTCTVSGFSLSNIRMGVSWIRQPPGKALEWLAHIFSNDDKSYSPSLKNRLTISKDTSKSQVVLTMTTMDPMDTATYYCTRMKYSGGPFDYWGQGTLVTVSS VL: not shown	binds	binds	binds	binds	binds	

Now from value to binder:

binding result [1]	binding result [2]	binding result [3]	binding result [4]	binding result [5]	binding result [6]	Binder
binds	binds	binds	binds		binds	anti-HER3 antibody 1D6 (antibody, human IgG1, V domains shown, common light chain) VH: EVQLVQSGPGLVKPSETLSLTCTVSGGSISSNNYYWAWIRQPPGKGLEWIGSLYYTGRAYYKSSLKSRVTISVDTSNDQFSLRLTSVTAADTAIYYCARHDCGNTCLNWFDRWGQGTLVTVSS VL: not shown
binds	binds		binds	binds		anti-HER3 antibody 1C5 (antibody, human IgG1, V domains shown, common light chain) VH: QVQLVESGGGVVQPGKSLRLSCAASGFTFSRSGMHWVRQAPGKGLEWVALISFDGSNKYYADSVKGRFTISRDNSKNTLNLQMNSLRAEDTAVYYCAKGGFGVVIYDAFDIWGHGTMVTVSS VL: not shown
